{"source": "paper PMC9820559", "about": "“Investigation of the Fuzzy Complex between RSV Nucleoprotein and Phosphoprotein to Optimize an Inhibition Assay by Fluorescence Polarization” (International Journal of Molecular Sciences, 2022)", "binders": {"B1": {"name": "P11 (unlabeled RSV P C-terminal 11-mer) (peptide)", "peptide": "DSDNDLSLEDF", "notes": "unlabeled peptide from which F11 was made; C-terminal 11 residues of RSV phosphoprotein P; also called P_(11SS); source: bought: GeneCust (synthetic peptide, >95% purity)"}, "B2": {"name": "P_(11EE) (unlabeled RSV P 11-mer, Ser232Glu/Ser237Glu) (peptide)", "peptide": "DEDNDLELEDF", "notes": "unlabeled peptide from which F_(11EE) was made; C-terminal 11 residues of RSV phosphoprotein P; source: synthetic peptide (Fmoc/tBu solid phase, RP-HPLC purified)"}, "B3": {"name": "F_(11EE) (FTU-labelled RSV P 11-mer, Ser232Glu/Ser237Glu) (peptide)", "peptide": "{FITC}-DEDNDLELEDF", "notes": "C-terminal 11 residues of RSV phosphoprotein P with phosphomimetic glutamates at 232 and 237; source: synthetic peptide (Fmoc/tBu solid phase), FITC coupled in solution, HPLC purified"}, "B4": {"name": "BCN_(11EE) (dicyano BODIPY FL-labelled RSV P 11-mer, Ser232Glu/Ser237Glu) (peptide)", "peptide": "{dicyano BODIPY FL}-DEDNDLELEDF", "notes": "C-terminal 11 residues of RSV phosphoprotein P with phosphomimetic glutamates at 232 and 237; source: synthetic peptide (Fmoc/tBu solid phase, dicyano BODIPY FL coupled on resin, RP-HPLC purified)"}, "B5": {"name": "P_(10EE) (unlabeled RSV P 10-mer, Ser232Glu/Ser237Glu) (peptide)", "peptide": "EDNDLELEDF", "notes": "unlabeled equivalent of BCN_(10EE), which was made from P_(10EE) on resin; C-terminal 10 residues of RSV phosphoprotein P; source: synthetic peptide"}, "B6": {"name": "P7E (unlabeled RSV P 7-mer, Ser237Glu) (peptide)", "peptide": "DLELEDF", "notes": "unlabeled peptide from which F7E was made; C-terminal 7 residues of RSV phosphoprotein P; source: synthetic peptide (Fmoc/tBu solid phase, RP-HPLC purified)"}, "B7": {"name": "P5E (unlabeled RSV P 5-mer, Ser237Glu) (peptide)", "peptide": "ELEDF", "notes": "unlabeled peptide from which F5E was made; C-terminal 5 residues of RSV phosphoprotein P; source: synthetic peptide (Fmoc/tBu solid phase, RP-HPLC purified)"}, "B8": {"name": "BCN_(10EE) (dicyano BODIPY FL-labelled RSV P 10-mer, Ser232Glu/Ser237Glu) (peptide)", "peptide": "{dicyano BODIPY FL}-EDNDLELEDF", "notes": "C-terminal 10 residues of RSV phosphoprotein P with phosphomimetic glutamates at 232 and 237; also called B_(10EE); source: synthetic peptide (Fmoc/tBu solid phase, dicyano BODIPY FL coupled on resin, RP-HPLC purified)"}}, "details_in_all_cases": "both partners purified", "key": {"[1]": {"biological_target": "T1, RSV N-RNA complex (full-length N protein in ring-shaped complexes with bacterial RNA) (human respiratory syncytial virus, UniProt P03418 1-391)", "T1 construct": "human RSV nucleoprotein N, full length; concentrations are of N protomer; also called N-RNA rings; source: in lysate for the co-purification; purified (glutathione-Sepharose, thrombin, Superdex 200) as N-RNA complex; copies: 10-11", "T1 sequence (looked up)": "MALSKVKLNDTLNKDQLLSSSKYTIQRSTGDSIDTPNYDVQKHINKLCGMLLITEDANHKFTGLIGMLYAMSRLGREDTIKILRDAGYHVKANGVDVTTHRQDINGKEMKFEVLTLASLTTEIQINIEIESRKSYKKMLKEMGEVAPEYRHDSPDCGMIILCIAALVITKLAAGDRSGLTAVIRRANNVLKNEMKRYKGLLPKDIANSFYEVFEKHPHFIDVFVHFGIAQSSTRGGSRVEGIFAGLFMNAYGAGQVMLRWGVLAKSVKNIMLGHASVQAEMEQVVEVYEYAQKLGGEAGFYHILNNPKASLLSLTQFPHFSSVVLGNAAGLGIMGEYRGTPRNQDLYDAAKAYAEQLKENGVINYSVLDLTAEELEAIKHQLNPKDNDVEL", "experiment": "fluorescence polarisation; competition: unlabeled P peptide varied against 200 nM F11 on 10 µM N-RNA; Tris pH 8 without salt; Hill equation; Ki from the IC50-to-Ki server"}, "[2]": {"biological_target": "T1, RSV N-RNA complex (full-length N …)", "experiment": "fluorescence polarisation; 200 nM FTU-labelled Fn peptide, N-RNA varied (up to 40 µM N); 20 mM Tris pH 8.0 without salt, 0.01% Brij-35; 20 °C; 30 min incubation; single site model, or with a linear contribution where marked (*)"}, "[3]": {"biological_target": "T1, RSV N-RNA complex (full-length N …)", "experiment": "fluorescence polarisation; 200 nM dicyano BODIPY FL-labelled BCNn peptide, N-RNA varied; 20 mM Tris pH 8.0 without salt, 0.01% Brij-35; 20 °C; single site model"}, "[4]": {"biological_target": "T1, RSV N-RNA complex (full-length N …)", "experiment": "fluorescence polarisation; 200 nM dicyano BODIPY FL-labelled BCNn peptide, N-RNA varied; 20 mM Tris pH 8.0 with 100 mM NaCl, 0.01% Brij-35; 20 °C; single site model"}, "[5]": {"biological_target": "T1, RSV N-RNA complex (full-length N …)", "experiment": "fluorescence polarisation; competition: unlabeled P_(10EE) varied against 200 nM BCN_(10EE) on 1 µM N-RNA; Tris pH 8 buffer; Hill equation; Ki from the IC50-to-Ki server"}, "[6]": {"biological_target": "T1, RSV N-RNA complex (full-length N …)", "experiment": "fluorescence polarisation; competition: unlabeled P7E varied against 200 nM F7E on 10 µM N-RNA; Tris pH 8 without salt; Hill equation; Ki from the IC50-to-Ki server"}, "[7]": {"biological_target": "T1, RSV N-RNA complex (full-length N …)", "experiment": "fluorescence polarisation; competition: unlabeled P5E varied against 200 nM F5E on 10 µM N-RNA; Tris pH 8 without salt; Hill equation; Ki from the IC50-to-Ki server"}}, "note": "Ends that are not written are not given here. * marks the point of attachment. dicyano BODIPY FL = CC1=CC(C)=[N+]2C1=Cc1ccc(CCC(=O)*)n1[B-]2(C#N)C#N; FITC = O=C1OC2(c3ccc(O)cc3Oc3cc(O)ccc32)c2ccc(NC(=S)*)cc21"}
{"binder": "B1", "values": [{"measurement": "IC50", "setting": "[1]", "result": "86 ± 7", "unit": "µM"}, {"measurement": "Ki", "setting": "[1]", "result": 34, "unit": "µM"}]}
{"binder": "B2", "values": [{"measurement": "IC50", "setting": "[1]", "result": "22 ± 4", "unit": "µM"}, {"measurement": "Ki", "setting": "[1]", "result": 6, "unit": "µM"}]}
{"binder": "B3", "values": [{"measurement": "Kd", "setting": "[2]", "result": "0.38 ± 0.12", "unit": "µM"}]}
{"binder": "B4", "values": [{"measurement": "Kd", "setting": "[3]", "result": "0.28 ± 0.07", "unit": "µM"}, {"measurement": "Kd", "setting": "[4]", "result": "0.26 ± 0.04", "unit": "µM"}]}
{"binder": "B5", "values": [{"measurement": "IC50", "setting": "[5]", "result": "21 ± 4", "unit": "µM"}, {"measurement": "Ki", "setting": "[5]", "result": 2.9, "unit": "µM"}]}
{"binder": "B6", "values": [{"measurement": "IC50", "setting": "[6]", "result": "376 ± 26", "unit": "µM"}, {"measurement": "Ki", "setting": "[6]", "result": 74, "unit": "µM"}, {"measurement": "IC50", "setting": "[1]", "result": "180 ± 11", "unit": "µM"}, {"measurement": "Ki", "setting": "[1]", "result": 75, "unit": "µM"}]}
{"binder": "B7", "values": [{"measurement": "IC50", "setting": "[7]", "result": "433 ± 21", "unit": "µM"}, {"measurement": "Ki", "setting": "[7]", "result": 158, "unit": "µM"}]}
{"binder": "B8", "values": [{"measurement": "Kd", "setting": "[3]", "result": "0.16 ± 0.03", "unit": "µM"}, {"measurement": "Kd", "setting": "[4]", "result": "1.24 ± 0.31", "unit": "µM"}]}
